Test results from the supplement of paper PMC10567573.

B1: SLC2A12 (parent)
chain: CLLGLGSLVLILSLSYTVLIVGRI
B2: PKD2L1 (parent)
chain: YSGGGYYLDLPGSRQGSAEALRAL
B3: KIAA1161 (parent)
chain: FMPAMQFSIPPWRYDAEVVAIAQK

Variants of: B1
Assay: protein stability index of a GFP-peptide fusion (GPS, HEK-293T) (PSI 1-6); higher = more stable
Details: c terminus: a fixed tail appended
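Also: lentivirally expressed fusions sorted by FACS into six bins by GFP to DsRed ratio, PSI derived from sequencing read proportions per bin multiplied by bin number.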

Protein stability index, by site and new letter:
L2: C 2.93, K 1.76, H 3.48, Q 1.55, M 2.96
I24: H 4.96, R 4.47, V 2.79, S 4.47, K 2.5, F 2.09, L 2.31, W 3.02
L8: H 2.87, I 3, P 2.7, D 4.51
V9: Y 2.23, F 3.79, N 1.9, H 2.07, K 1.27, T 2.25, S 3.94, D 3.2
L19: R 4.06, V 3.24, N 2.96, P 3.35, H 3.95, W 1.77
G22: E 3.84, T 4.65, V 3.25, K 2.08, F 3.4, Q 3.23, H 2.75, S 2.04
G4: Y 4.5, F 3.56, C 2.73, D 3.12, L 4.03
V21: I 3.74, F 4.2, Y 3.38, P 3.7, L 2.77, C 3.06, E 1.97
L5: Q 2.45, E 2.46, Y 3.19, W 2.12, M 3.94, G 3.97, I 3.48, R 2.84, H 2.6
I11: W 1.42, D 3.63, Y 1.36, E 4.57
L10: S 2.96, T 3.09, N 2.3, W 3.03, K 2.9, C 3.02
Y16: M 3.02, P 3.53, W 1.91
I20: N 3.97, Q 3.17, M 2.69, P 2.85, L 3.62
V18: M 4.12, H 2.43, T 2.93, L 2.48, S 3.07, F 1.87, K 2.98
S7: I 2.45, P 2.76, H 1.81, A 3.86, T 2.51, K 2.01, N 2.72, R 1.8
R23: T 2.41, A 1.68, E 3.06, Y 1.35, I 1.07, L 2.88, M 2.33, K 3.91, Q 2.57, C 3.83, F 1.85
L14: F 2.16, D 2.03, E 2.46, H 3.01, V 3.61
L12: Y 3.84, V 3.35, N 2.87, P 2.04, I 1.58, E 3.91, Q 3.11, S 1.92, W 3.73, T 2.44
C1: I 1.83, L 2.46, N 2.15, K 1.68, R 2.88, M 2.46, W 1.27
S15: Q 1.91, I 3.21, C 4.02, H 3.25, N 3.57, W 1.8, D 2.87
L3: N 2.92, T 1.32, E 2.54, K 2.17, R 2.62
T17: Y 2.3, E 3.32, F 3.38, N 2.91
S13: F 3.31, R 1.87, N 1.87, L 2, D 2.82, I 3.33
G6: C 4.32, D 3.1, T 2.06, A 2.43, H 2.78, E 3.33, I 2.69, Y 3.29, F 2.27

Variants of: B2
Assay: as above
Details: c terminus: a fixed tail appended

Protein stability index: each site, then its substitutions
G5: S 1.83
L10: W 1.14
G16: L 1.57, F 1.38
R22: W 3.79, F 2.84
A20: T 2.65, G 1.66
Y6: A 2.27, L 1.59
A23: T 2.24, E 1.95, D 2.21
S13: I 1.25, G 2.58
S2: K 2.22, Y 2.19
Y1: Q 3.75, G 3.66
L21: T 1.86
R14: V 1.91
G12: D 2.09, P 2.05
A18: Y 1.75, W 1.61, R 1.71
S17: R 1.41
G4: K 2.37
L8: V 2.45, K 1.42

Variants of: B3
Assay: as above
Details: c terminus: a fixed tail appended

Protein stability index of substitutions, site by site:
A4: E 2.34, C 1.47, M 1.86, H 2.68, R 2.66, K 1.87, D 3.44, G 2.34, L 2.09, N 1.56, T 1.76, P 2.29, Q 1.97
M2: Y 1.79, R 2.45, W 2.09, Q 2.71, N 1.61, L 1.46, H 1.74, K 2.38, C 1.97, E 2.83, S 1.46, D 3.16, A 2.47
Q6: R 1.82, E 1.83, H 1.86, G 1.83, F 1.4, Y 1.34, I 1.34, V 3.24, D 1.92, N 2.66, K 1.93, S 1.83, T 1.55, A 2.33
S8: C 1.07, L 2.05, P 2.1, R 1.99, G 1.65, K 2.93, I 2.81, N 2.7, F 2.68, Q 2.11, D 1.54, V 2, T 1.64, A 1.69, M 1.71
P3: N 2.39, L 2.22, K 2.58, Q 1.28, F 1.73, M 4, I 2.58, C 2.02, V 2.33, A 2.35
I9: K 1.84, H 2.35, A 2, Y 2.83, Q 1.67, D 2.57, F 2.48, M 2.04, S 2.08, N 2.28, T 1.8, P 1.93, G 1.95, E 2.37, R 1.6, W 3.43
P10: Y 2.34, I 2.86, M 1, D 1.27, K 2.57, H 1.77, W 3.74, A 1.33, R 1.28, L 2.99, S 2.42, G 1.33, T 2, E 2.5, Q 1.64
F1: A 2.3, E 2.81, N 2.61, P 2.33, G 2.04, C 1.97, W 1.95, Y 1.82, L 2.37, Q 3.2, D 3.37, V 2.7, M 2.83, I 2.52, S 1.84, R 3.23, K 2.55
F7: K 1.7, D 2.9, N 2.24, G 1.61, T 2.24, M 1.91, Q 2.89, W 1.68, P 2.08, H 2.01, Y 1.7, I 2.9, E 2.34, L 1.82, S 1.6, C 2.61, A 1.97
M5: H 2.71, K 1.95, P 2.6, F 2.25, Q 2.24, T 1.68, G 3.64, A 2.15, E 2.81, D 1.48, N 1.9, V 2.23, S 2.24, L 2.25, C 2.11, Y 1.77
P11: A 1.61
